Laboratory results published in patent US20040219635A1 (Dana-Farber, published 2004).
Ends that are not written are not given here.

Experiments:
[1] = biological target: T1, pVHL (form used not given) (UniProt P40337 1-213); assay: binding to GST-ODD after phosphatase treatment; unpublished data (16)
T1 construct: also called wild-type pVHL

[2] = biological target: T2, immobilized GST-pVHL, elongin B, elongin C complexes (UniProt P40337 54-213; Q15370 1-118; Q15369 17-112); assay: capture of 35S-labeled protein on immobilized GST-VBC
T2 construct: also called GST-VBC; GST-VHL, elongin B, elongin C complexes

HA-pVHL [3] = biological target: T3, HA-pVHL (UniProt P40337 1-213); assay: peptide binding assay; unpublished data (16)
T3 construct: In the cells it sits in complexes; also called 35S-HA-pVHL; 35S-labeled pVHL

HA-pVHL [4] = biological target: T3, HA-pVHL; assay: peptide elution of HIF from anti-HA immunoprecipitates of HA-pVHL (ts20 cells); failure to displace

T3 sequence (P40337 whole entry): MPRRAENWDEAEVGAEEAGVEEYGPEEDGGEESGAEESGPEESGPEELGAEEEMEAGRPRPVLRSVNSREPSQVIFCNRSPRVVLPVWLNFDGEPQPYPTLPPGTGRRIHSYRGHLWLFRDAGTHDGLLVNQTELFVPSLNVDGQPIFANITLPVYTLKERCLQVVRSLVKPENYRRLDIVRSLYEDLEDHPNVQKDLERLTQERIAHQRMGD
T1 sequence (P40337 whole entry): as above

B1: GST-HIF1α(530-652) produced in E. coli and preincubated with rabbit reticulocyte lysate (other, UniProt Q16665 530-652, looked up)
chain: EFKLELVEKLFAEDTEAKNPFSTQDTDLDLEMLAPYIPMDDDFQLRSFDQLSPLESSSASPESASPQSTVTVFQQTQIQEPTANATTTTATTDELKTVTKDRMEDIKILIASPSPTHIHKETT
modifications: modified by a factor in reticulocyte lysate; later examples identify the modification as hydroxylation of Pro 564
notes: range 530-652; Incubated with rabbit reticulocyte lysate for 90 min at 30° C; also called GST-ODD; not shown: glutathione S-transferase (GST) fusion partner
Does B1 bind [1]?
Result: binds

B2: Leu562Ala Gal4-HA-HIF1α(530-652) (other)
chain: EFKLELVEKLFAEDTEAKNPFSTQDTDLDLEMAAPYIPMDDDFQLRSFDQLSPLESSSASPESASPQSTVTVFQQTQIQEPTANATTTTATTDELKTVTKDRMEDIKILIASPSPTHIHKETT
notes: range 530-652; also called Gal4-ODD Leu562Ala; not shown: Gal4 portion
Does B2 bind [2]?
Result: no binding

B3: Pro564Ala Gal4-HA-HIF1α(530-652) (other)
chain: EFKLELVEKLFAEDTEAKNPFSTQDTDLDLEMLAAYIPMDDDFQLRSFDQLSPLESSSASPESASPQSTVTVFQQTQIQEPTANATTTTATTDELKTVTKDRMEDIKILIASPSPTHIHKETT
notes: range 530-652; also called Gal4-ODD Pro564Ala; not shown: Gal4 portion
Does B3 bind [2]?
Result: no binding

B4: biotinylated HIF (556-575) peptide with Met561 and Met568 replaced with alanine (peptide, UniProt Q16665 556-575, looked up)
peptide: DLDLEALAPYIPADDDFQLR
modifications: also: biotinylated (site not given here)
notes: Made for the mass spectrometry experiments
Does B4 bind (HA-pVHL [3])?
Result: binds

B5: biotinylated HIF1α(556-575) Pro564Ala peptide (peptide, UniProt Q16665 556-575, looked up)
peptide: DLDLEMLAAYIPMDDDFQLR
modifications: also: biotinylated (site not given here)
Does B5 bind (HA-pVHL [4])?
Result: no binding (tested: 7 µg of peptide in 65 µl of PBS)
